B1: Azoarcus group I ribozyme (parent)
chain: GUGCCUUGCGCCGGGAAACCACGCAAGGGAUGGUGUCAAAUUCGGCGAAACCUAAGCGCCCGCCCGGGCGUAUGGCAACGCCGAGCCAAGCUUCGGCGCCUGCGCCGAUGAAGGUGUAGAGACUAGACGGCACCCACCUAAGGCAAACGCUAUGGUGAAGGCAUAGUCCAGGGAGUGGCGAAAGUCACACAAACCGG

Variants of: B1
Experiment: reverse-splicing fitness (ratio to wild type); higher = more active; in vitro selection; Mg2+ level not given
In short: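 An in vitro group I ribozyme library with randomized positions was T7-transcribed and gel-purified. In triplicate, 10 pmol RNA in EPPS pH 7.5 was reacted with 50 pmoles of a 30-nt RNA substrate for 1 h at 37 °C across several added MgCl2 levels (1–48 mM), then stopped with EDTA. Products were reverse transcribed from a substrate-complementary primer, PCR-amplified and sequenced (HiSeq 4000). Fitness is a variant's read proportion after selection over that before, normalised to wild type.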

| Variant | reverse-splicing fitness |
| --- | --- |
| C82G A111U A145C C150A C169A | 0.00868 |
| C82G A111U A145C C150A C169U | 0.0105 |
| C82G A111U A145C C150A C169G | 0.00822 |
| C82G A111U A145C C150A C169A U176A | 0.0125 |
| C82G A111U A145C C150A C169A U176G | 0.0075 |
| C82G A111U A145C C150A C169A U176C | 0.00716 |
| C82G A111U A120U C150G C169A U176A | 0.00533 |
| C82G A111U A120U C150G C169A U176C | 0.00545 |
| C82G A111U A120U C150G C169A U176G | 0.00291 |
| C82G A111U A120U A145U C150U C169G U176C | 0.00287 |
| C82G A111U A120U A145U C150U C169G U176A | 0.00344 |
| C82G A111U A120U A145U C150U C169G U176G | 0.00218 |
| C82G A111U A120U C150A U176A | 0.00758 |
| C82G A111U A120U C150A U176C | 0.00858 |
| C82G A111U A120U C150A U176G | 0.00383 |
| C82G A111U A145C C169A U176A | 0.0121 |
| C82G A111U A145C C169A U176G | 0.00501 |
| C82G A111U A145C C169A U176C | 0.00791 |
| C82G A111U A145C C150G C169G U176A | 0.00943 |
| C82G A111U A145C C150G C169G U176C | 0.00772 |
| C82G A111U A145C C150G C169G U176G | 0.00602 |

| Variant | reverse-splicing fitness |
| --- | --- |
| C82G A111U A120U A145C C169A U176A | 0.00191 |
| C82G A111U A120U A145C C169A U176C | 0.00232 |
| C82G A111U A120U A145C C169A U176G | 0.00205 |
| C82G A111U A145C | 0.365 |
| C82G A111U A145G | 0.424 |
| C82G A111U A120U A145C C150U C169U U176G | 0.00228 |
| C82G A111U A120U A145C C150U C169U U176C | 0.00208 |
| C82G A111U A120U A145C C150U C169U U176A | 0.00361 |
| C82G A111U A120U A145U C150G U176G | 0.00246 |
| C82G A111U A120U A145U C150G U176A | 0.00373 |
| C82G A111U A120U A145U C150G U176C | 0.006 |
| C82G A111U A120U A145C C150U C169G U176G | 0.0021 |
| C82G A111U A120U A145C C150U C169G U176A | 0.00298 |
| C82G A111U A120U A145C C150U C169G U176C | 0.00262 |
| C82G A111U A120U A145U C169U U176C | 0.00275 |
| C82G A111U A120U A145U C169U U176A | 0.00233 |
| C82G A111U A120U A145U C169U U176G | 0.00177 |
| C82G A111U A145G C150G U176A | 0.0137 |
| C82G A111U A145G C150G U176G | 0.00893 |
| C82G A111U A145G C150G U176C | 0.0285 |
| C82G A111U A145G C150A U176C | 0.0447 |

| Variant | reverse-splicing fitness |
| --- | --- |
| C82G A111U A145G C150A U176G | 0.0141 |
| C82G A111U A145G C150A U176A | 0.0322 |
| C82G A111U A145G C150A C169G U176C | 0.0282 |
| C82G A111U A145G C150A C169G U176A | 0.0179 |
| C82G A111U A145G C150A C169G U176G | 0.00671 |
| C82G A111U A145C C150A | 0.0198 |
| C82G A111U A145C C150U | 0.0722 |
| C82G A111U A145C C150G | 0.0354 |
| C82G A111U A120U A145G C150G C169A U176C | 0.0086 |
| C82G A111U A120U A145G C150G C169A U176G | 0.00502 |
| C82G A111U A120U A145G C150G C169A U176A | 0.0114 |
| C82G A111U A145G C150A | 0.0434 |
| C82G A111U A145G C150G | 0.0339 |
| C82G A111U A145G C150U | 0.298 |
| C82G A111U A120U A145G C150G C169G | 0.00714 |
| C82G A111U A120U A145G C150G C169U | 0.00767 |
| C82G A111U A120U A145G C150G C169A | 0.00873 |
| C82G A111U A120U C150U C169G U176C | 0.00433 |
| C82G A111U A120U C150U C169G U176A | 0.00881 |
| C82G A111U A120U C150U C169G U176G | 0.00236 |
| C82G A111U A145C C150U C169A U176C | 0.00701 |

| Variant | reverse-splicing fitness |
| --- | --- |
| C82G A111U A145C C150U C169A U176A | 0.0133 |
| C82G A111U A145C C150U C169A U176G | 0.00702 |
| C82G A111U A145G C150U C169A | 0.0114 |
| C82G A111U A145G C150U C169U | 0.0119 |
| C82G A111U A145G C150U C169G | 0.00982 |
| C82G A111U A120U A145G C150A U176G | 0.00383 |
| C82G A111U A120U A145G C150A U176C | 0.00757 |
| C82G A111U A120U A145G C150A U176A | 0.00769 |
| C82G A111U A120U A145G C169U U176G | 0.00203 |
| C82G A111U A120U A145G C169U U176C | 0.004 |
| C82G A111U A120U A145G C169U U176A | 0.00386 |
| C82G A111U A120U A145U C150G C169U U176A | 0.00286 |
| C82G A111U A120U A145U C150G C169U U176G | 0.00286 |
| C82G A111U A120U A145U C150G C169U U176C | 0.0029 |
| C82G A111U A120U C150G C169G U176C | 0.00362 |
| C82G A111U A120U C150G C169G U176A | 0.00513 |
| C82G A111U A120U C150G C169G U176G | 0.003 |
| C82G A111U A120U C150G U176A | 0.00389 |
| C82G A111U A120U C150G U176C | 0.00683 |
| C82G A111U A120U C150G U176G | 0.0026 |
